# Source: patent publication US20260069656A1, “Nutritive Polypeptides and Formulations Thereof, and Methods of Production and Use Thereof” (Axcella Health Inc., priority 2013, published 2026)
# Key:
# [1] = Intact half-life during simulated gastric fluid (SGF) digestion
# [2] = SGF digest of the 168 nutritive polypeptide library, intact protein by LC-MS/MS spectral counts; format: in vitro ADME; details: proteins detected in the 168 nutritive polypeptide library
# Description: Nutritive polypeptide intact half-life determination in a complex mixture. The in vitro intact half-life of multiple polypeptides in a complex mixture was determined using the simulated gastric in vitro digestion described above. Briefly, the 168 nutritive polypeptide library was generated as described herein by cloning, transforming, and expressing a gene library encoding 168 proteins as a single mixture. The recombinantly expressed proteins were purified from host cell proteins by IMAC purification as described herein.
# The 168 Protein Library was treated with SGF as described above and the t=0 and t=10 min samples were analyzed for intact protein by LC-MS/MS. To begin, 10 μg of sample was loaded onto a 10% SDS-PAGE gel (Invitrogen) and run approximately 5 cm into the gel. The gel was excised into ten fractions from 100 kD to the dye front and the gel slices were processed by washing with 25 mM ammonium bicarbonate, followed by acetonitrile. Gel fractions were then reduced with 10 mM dithiothreitol at 60° C., followed by alkylation with 50 mM iodoacetamide at room temperature. Finally, the samples were digested with trypsin (Promega) at 37° C. for 4 h and the digestions were quenched with the addition of formic acid. The samples were then analyzed by nano LC/MS/MS using an EasynLC 1000 HPLC system interfaced to a ThermoFisher Q Exactive. Peptides were loaded on a trapping column and eluted over a 75 μm analytical column at 350 nL/min; both columns were packed with PepMap C18 3 μm resin (ThemoFisher). A 1 hour gradient was employed. The mass spectrometer was operated in data-dependent mode, with MS and MS/MS performed in the Orbitrap at 70,000 FWHM resolution and 17,500 FWHM resolution, respectively. The fifteen most abundant ions were selected for MS/MS. Data were searched against an appropriate database using Mascot to identify peptides. Mascot DAT files were parsed into the Scaffold software for validation, filtering and to create a nonredundant list per sample. Data were filtered at 1% protein and peptide false discovery rate (FDR) and requiring at least two unique peptides per protein. A full list of detected proteins and their spectral counts (SpC) was generated and reported as a function of each collected gel fraction. SpC are a count of the number of spectra identified for a given protein and are used as a measure of relative protein abundance (Liu, H. et al., Analytical Chemistry 2004, 76:4193-4201). To calculate the percentage of intact protein remaining at the 10 min time point of the SGF digest the number of SpC representative of intact peptide in the t=10 min sample were divided by the number of SpC representative of intact peptide in the t=0 min sample. The number of SpC representative of intact peptide was defined as the sum of the SpC in the fraction with the highest number of SpC assigned to that protein in the t=0 min sample and the two flanking fractions.
# [3] = system: kinase activity of SEQID-00338 (AMP + ATP→2ADP); test: Kinase activity of SEQID-00338 and mutants, ADP-Glo Max Assay; format: biochemical; details: 7 μg/mL, 30 minute reaction at 30° C.; N=2
# Description: Determination of the kinase activity of SEQID-00338. The ADP-Glo™ Max Assay was obtained from Promega (Catalog number V7001, Madison, WI). Adenosine Monophosphate was obtained from Sigma-Aldrich (Catalog number A1752, St. Louis, MO). 5× Kinase Buffer was prepared w/1.211 g Tris Base (Catalog number BP152-2, Fisher Bioreagents, Pittsburgh, PA), 692 μL 12% hydrochloric acid solution (Catalog number BDH3026-500MLP, VWR, Radnor, PA), 10.0 mL 500 mM magnesium chloride (Catalog number BP214-500, Fisher Bioreagents, Pittsburgh, PA) and the volume brought to 50 mL with MilliQ water and filtered through 0.22 μm PES filter (Catalog number SCGP00525, Millipore, Billerica, MA) into a sterile 50 mL tube.
# Twelve his-tag purified mutant proteins and the wild-type protein at 35 μg/mL in Tris buffer were serially diluted to 7.0 and 1.4 μg/mL. Prepared kinase reaction mix at 0.5 mM AMP/0.5 mM ATP to test for activity and at 0 mM AMP/0 mM ATP to assay background activity by diluting 5× Kinase Buffer with appropriate volumes of 10 mM AMP and 10 mM ATP in MilliQ water. Duplicate reactions were prepared by mixing 9 μL of the reaction mixture with 6 μL of diluted SEQID-00338, mixing by pipetting up and down and dispensing 5 μL into a 384-well white OptiPlate (PerkinElmer, Waltham, MA). An ADP standard curve was prepared by serially diluting 4 mM ADP in MilliQ water and adding kinase buffer to 1× for a standard at 0.0005, 0.001, 0.005, 0.01, 0.05, 0.1, 1.5, 1, 2, 3, and 4 mM ADP. The plate was covered with a foil plate seal and incubated at 30° C. for 30 min. Following the kinase reaction, 5 μL of ADP-Glo™ Reagent was added to each well. The plate was sealed with a foil plate seal and placed on a horizontal plate shaker at 450 rpm for 2 minutes at room temperature. The plate was removed from the plate shaker and incubated at room temperature for 40 minutes. The plate was then centrifuged for 15 seconds at 1109× rcf and 10 μL of ADP-Glo™ Max Detection Reagent was added. The plate was sealed with a foil plate seal and shaken on a horizontal plate shaker at 450 rpm at room temperature for 2 minutes. The plate was then removed from the plate shaker and incubated at room temperature for 60 minutes. The plate was centrifuged for 15 seconds at 1109× rcf and the luminescence read on an EnspireAlpha plate reader (PerkinElmer, Waltham, MA).
# The ADP standard curve was used to determine the concentration of ADP in sample wells in the presence or absence of substrate. Concentrations were determined by performing a non-linear 4 parameter logistic on the X=log(X) transformed ADP standard luminescence values. […] Where the background concentration of ADP in the absence of substrate was calculable the average of those values were subtracted from the calculated ADP concentration in the substrate incubated wells. Activity knock out was calculated by percentage activity relative to purified wild-type protein at the same concentration.
Molecule,"AVG proportion activity, percentage AMP + ATP→2ADP converted relative to wild-type [3] [%]",also measured
"SEQID-00610: protein of the 168 nutritive polypeptide library (protein, listed as Saccharomyces cerevisiae, strain ATCC 204508 / S288c, protein of the 168 nutritive polypeptide library) MVLEATVLVIDNSEYSRNGDFPRTRFEAQIDSVEFIFQAKRNSNPENTVGLISGAGANPRVLSTFTAEFGKILAGLHDTQIEGKLHMATALQIAQLTLKHRQNKVQHQRIVAFVCSPISDSRDELIRLAKTLKKNNVAVDIINFGEIEQNTELLDEFIAAVNNPQEETSHLLTVTPGPRLLYENIASSPIILEEGSSGMGAFGGSGGDSDANGTFMDFGVDPSMDPELAMALRLSMEEEQQRQERLRQQQQQQDQPEQSEQPEQHQDK",–,"SGF Half-life (t½) ([1]; SGF pH 1.5, pepsin:polypeptide 1:20 w/w, 37° C., produced in E. coli unless otherwise noted): 0.4 min; Half-life ([1]; purified proteins, chip electrophoresis, SGF): 0.4 min; % Remaining at 10 min [2]: 3.3%"
"R42G: single amino acid mutant of SEQID-00338 at substrate binding position 42 (protein, listed as Saccharomyces cerevisiae, strain ATCC 204508 / S288c) MSSSESIRMVLIGPPGAGKGTQAPNLQERFHAAHLATGDMLGSQIAKGTQLGLEAKKIMDQGGLVSDDIMVNMIKDELTNNPACKNGFILDGFPRTIPQAEKLDQMLKEQGTPLEKAIELKVDDELLVARITGRLIHPASGRSYHKIFNPPKEDMKDDVTGEALVQRSDDNADALKKRLAAYHAQTEPIVDFYKKTGIWAGVDASQPPATVWADILNKLGKD",1.2,–
"R42Q: single amino acid mutant of SEQID-00338 at substrate binding position 42 (protein, listed as Saccharomyces cerevisiae, strain ATCC 204508 / S288c) MSSSESIRMVLIGPPGAGKGTQAPNLQERFHAAHLATGDMLQSQIAKGTQLGLEAKKIMDQGGLVSDDIMVNMIKDELTNNPACKNGFILDGFPRTIPQAEKLDQMLKEQGTPLEKAIELKVDDELLVARITGRLIHPASGRSYHKIFNPPKEDMKDDVTGEALVQRSDDNADALKKRLAAYHAQTEPIVDFYKKTGIWAGVDASQPPATVWADILNKLGKD",1.2,–
"R42L: single amino acid mutant of SEQID-00338 at substrate binding position 42 (protein, listed as Saccharomyces cerevisiae, strain ATCC 204508 / S288c) MSSSESIRMVLIGPPGAGKGTQAPNLQERFHAAHLATGDMLLSQIAKGTQLGLEAKKIMDQGGLVSDDIMVNMIKDELTNNPACKNGFILDGFPRTIPQAEKLDQMLKEQGTPLEKAIELKVDDELLVARITGRLIHPASGRSYHKIFNPPKEDMKDDVTGEALVQRSDDNADALKKRLAAYHAQTEPIVDFYKKTGIWAGVDASQPPATVWADILNKLGKD",1.7,–
"R42I: single amino acid mutant of SEQID-00338 at substrate binding position 42 (protein, listed as Saccharomyces cerevisiae, strain ATCC 204508 / S288c) MSSSESIRMVLIGPPGAGKGTQAPNLQERFHAAHLATGDMLISQIAKGTQLGLEAKKIMDQGGLVSDDIMVNMIKDELTNNPACKNGFILDGFPRTIPQAEKLDQMLKEQGTPLEKAIELKVDDELLVARITGRLIHPASGRSYHKIFNPPKEDMKDDVTGEALVQRSDDNADALKKRLAAYHAQTEPIVDFYKKTGIWAGVDASQPPATVWADILNKLGKD",1.5,–
"R42K: single amino acid mutant of SEQID-00338 at substrate binding position 42 (protein, listed as Saccharomyces cerevisiae, strain ATCC 204508 / S288c) MSSSESIRMVLIGPPGAGKGTQAPNLQERFHAAHLATGDMLKSQIAKGTQLGLEAKKIMDQGGLVSDDIMVNMIKDELTNNPACKNGFILDGFPRTIPQAEKLDQMLKEQGTPLEKAIELKVDDELLVARITGRLIHPASGRSYHKIFNPPKEDMKDDVTGEALVQRSDDNADALKKRLAAYHAQTEPIVDFYKKTGIWAGVDASQPPATVWADILNKLGKD",2.2,–

# More lines, main results first:
"AVG proportion activity, percentage AMP + ATP→2ADP converted relative to wild-type [3] [%]",Molecule,also measured
0.4,"D91I: single amino acid mutant of SEQID-00338 at magnesium ion binding site position 91 (protein, listed as Saccharomyces cerevisiae, strain ATCC 204508 / S288c) MSSSESIRMVLIGPPGAGKGTQAPNLQERFHAAHLATGDMLRSQIAKGTQLGLEAKKIMDQGGLVSDDIMVNMIKDELTNNPACKNGFILIGFPRTIPQAEKLDQMLKEQGTPLEKAIELKVDDELLVARITGRLIHPASGRSYHKIFNPPKEDMKDDVTGEALVQRSDDNADALKKRLAAYHAQTEPIVDFYKKTGIWAGVDASQPPATVWADILNKLGKD",–
0.9,"D91F: single amino acid mutant of SEQID-00338 at magnesium ion binding site position 91 (protein, listed as Saccharomyces cerevisiae, strain ATCC 204508 / S288c) MSSSESIRMVLIGPPGAGKGTQAPNLQERFHAAHLATGDMLRSQIAKGTQLGLEAKKIMDQGGLVSDDIMVNMIKDELTNNPACKNGFILFGFPRTIPQAEKLDQMLKEQGTPLEKAIELKVDDELLVARITGRLIHPASGRSYHKIFNPPKEDMKDDVTGEALVQRSDDNADALKKRLAAYHAQTEPIVDFYKKTGIWAGVDASQPPATVWADILNKLGKD",–
1.9,"R42T: single amino acid mutant of SEQID-00338 at substrate binding position 42 (protein, listed as Saccharomyces cerevisiae, strain ATCC 204508 / S288c) MSSSESIRMVLIGPPGAGKGTQAPNLQERFHAAHLATGDMLTSQIAKGTQLGLEAKKIMDQGGLVSDDIMVNMIKDELTNNPACKNGFILDGFPRTIPQAEKLDQMLKEQGTPLEKAIELKVDDELLVARITGRLIHPASGRSYHKIFNPPKEDMKDDVTGEALVQRSDDNADALKKRLAAYHAQTEPIVDFYKKTGIWAGVDASQPPATVWADILNKLGKD",–
